Assay results taken from the RNAGym collection of RNA variant scans (doi:10.7554/elife.80360).

B1: HDV Ribozyme (parent)
chain: GGCCGGCAUGGUCCCAGCCUCCUCGCUGGCGCCGGCUGGGCAACAUUCCGAGGGGACCGUCCCCUCGGUAAUGGCGAAUGGGACCCA

Variants of: B1
Assay: self-cleavage, relative activity (ratio to wild type); higher = more cleavage; co-transcriptional

First: C48U A77U
Second: G50U C86G
The self-cleavage of the first is lower: 0.356 for the first, 0.811 for the second.

First: G50C A71G
Second: C48U C49U
The self-cleavage of the first is higher: 1.01 for the first, 0.85 for the second.

Compared with C48U C49A, C48U C49G is lower in self-cleavage: 1.05 for the first, 0.982 for the second.

First: G50A G73C
Second: G50A G73A
The self-cleavage of the first is lower: 0.436 for the first, 0.623 for the second.

Compared with G50A G73U, U47G C48G is higher in self-cleavage: 0.369 for the first, 0.635 for the second.

Compared with U47A U65A, U47A U65G is lower in self-cleavage: 1.07 for the first, 0.931 for the second.

First: G50U
Second: G50C
The self-cleavage of the first is higher: 0.989 for the first, 0.963 for the second.

First: G50A
Second: C49U C61U
The self-cleavage of the first is higher: 0.98 for the first, 0.851 for the second.

Compared with C48G U72A, C48G G50U is higher in self-cleavage: 0.718 for the first, 0.941 for the second.

Going from G50U G53U to C48A G76U, the self-cleavage rises from 0.735 to 1.03.

Going from U47G A51U to U47G A51C, the self-cleavage falls from 1.2 to 1.13.

Compared with U47G A51G, U47A G68A is higher in self-cleavage: 0.906 for the first, 1.09 for the second.

Going from U47A G68U to U47G A71G, the self-cleavage rises from 0.944 to 1.11.

First: G50A U69G
Second: C48A A56U
The self-cleavage of the first is lower: 0.76 for the first, 1.03 for the second.

Compared with U47G C64G, G50U A83G is higher in self-cleavage: 0.485 for the first, 0.818 for the second.

Compared with G50A C85G, G50U C85A is lower in self-cleavage: 0.878 for the first, 0.742 for the second.

Compared with C49A C57G, C49A A78G is lower in self-cleavage: 0.898 for the first, 0.665 for the second.

First: G50A C57G
Second: C48A G80A
The self-cleavage of the first is higher: 0.886 for the first, 0.293 for the second.

Going from U47C U69C to C48G C84U, the self-cleavage falls from 1.08 to 0.848.

Compared with U47G G55U, C49U C66U is lower in self-cleavage: 1.07 for the first, 0.899 for the second.

Going from G50A A83C to G50A G80U, the self-cleavage falls from 0.525 to 0.233.

Going from C48G A56U to C48G A56C, the self-cleavage falls from 1.03 to 0.875.

Compared with C49A G81U, G50A C84A is higher in self-cleavage: 0.26 for the first, 0.95 for the second.

Going from G50A C84G to C49A C86G, the self-cleavage rises from 0.853 to 0.906.

Compared with G50U C66G, G50C G80A is lower in self-cleavage: 0.787 for the first, 0.523 for the second.

Compared with U47C C63A, C49A C66U is higher in self-cleavage: 0.739 for the first, 0.979 for the second.

Going from G50A A56C to C49U C63G, the self-cleavage falls from 1.25 to 0.396.

First: C49U C63A
Second: C48U C64U
The self-cleavage of the first is higher: 1 for the first, 0.997 for the second.

Compared with C49G G68A, C49G G68C is lower in self-cleavage: 0.789 for the first, 0.458 for the second.

First: C49U G73C
Second: C49U G73A
The self-cleavage of the first is lower: 0.409 for the first, 0.716 for the second.

Going from C49A G82A to C49A G68U, the self-cleavage rises from 0.104 to 0.817.

Going from C49A G68C to C48U G59C, the self-cleavage rises from 0.849 to 1.23.

First: U47G U60A
Second: C49A G73A
The self-cleavage of the first is higher: 1.33 for the first, 0.314 for the second.

First: G50U A77U
Second: C48U G55U
The self-cleavage of the first is lower: 0.62 for the first, 1.11 for the second.

Going from C49U C64A to C49A A71C, the self-cleavage falls from 0.739 to 0.643.

Compared with C49U G55C, C48G A71U is lower in self-cleavage: 0.906 for the first, 0.554 for the second.

Compared with C48G A71G, C48A C63U is higher in self-cleavage: 0.962 for the first, 1.07 for the second.

Compared with C48A C63G, C49A A56G is higher in self-cleavage: 0.73 for the first, 1.11 for the second.

Compared with G50A A77U, G50A C62A is lower in self-cleavage: 0.721 for the first, 0.694 for the second.

Going from G50A C62G to U47C G54U, the self-cleavage rises from 0.219 to 1.14.

First: C49U C58U
Second: C49A A51G
The self-cleavage of the first is higher: 0.991 for the first, 0.748 for the second.

First: C49A A51C
Second: C49G G59A
The self-cleavage of the first is lower: 0.297 for the first, 1.11 for the second.

Compared with C48U C85U, C49G C57G is lower in self-cleavage: 1.14 for the first, 0.997 for the second.

Compared with G50C G55C, G50C G54U is lower in self-cleavage: 1.14 for the first, 0.374 for the second.

Compared with U47G G52A, U47G G52C is lower in self-cleavage: 0.978 for the first, 0.895 for the second.

First: G50A U60A
Second: G50C A77U
The self-cleavage of the first is higher: 0.776 for the first, 0.554 for the second.

Going from G50C A77G to U47G A70C, the self-cleavage rises from 0.665 to 1.22.

First: U47G A70U
Second: C48A G74U
The self-cleavage of the first is higher: 1.4 for the first, 0.38 for the second.

First: G50C G81U
Second: C49U G54A
The self-cleavage of the first is lower: 0.263 for the first, 1.02 for the second.

First: U47A G54C
Second: C49U U65G
The self-cleavage of the first is higher: 1.01 for the first, 0.939 for the second.

Compared with C48G G80U, U47G A77C is higher in self-cleavage: 0.244 for the first, 0.35 for the second.

First: U47C A77C
Second: C48G G52A
The self-cleavage of the first is lower: 0.317 for the first, 0.86 for the second.

Going from C48G G52C to C49G A51G, the self-cleavage falls from 0.762 to 0.688.

Going from C49G A51C to G50C A78U, the self-cleavage falls from 0.623 to 0.131.

Going from C49G C75A to C49A A83U, the self-cleavage rises from 0.185 to 0.719.

First: C48A U69C
Second: C48A U69G
The self-cleavage of the first is lower: 0.892 for the first, 0.997 for the second.

First: C48A U69A
Second: C48U G53U
The self-cleavage of the first is lower: 0.814 for the first, 0.923 for the second.

First: C49G C58A
Second: C48A G53C
The self-cleavage of the first is lower: 0.764 for the first, 1.2 for the second.

Going from G50C G74U to G50C G74A, the self-cleavage rises from 0.292 to 0.471.

Compared with U47C A83U, U47C A83C is higher in self-cleavage: 0.378 for the first, 0.554 for the second.

Going from C49U U79A to U47G C63G, the self-cleavage falls from 0.811 to 0.415.

Compared with U47G C66A, U47C C48G is lower in self-cleavage: 0.969 for the first, 0.804 for the second.

Compared with C49U A83U, C49U G82U is higher in self-cleavage: 0.391 for the first, 0.47 for the second.

Going from C49U G82C to G50C U72A, the self-cleavage rises from 0.264 to 0.789.

Compared with U47G C62U, U47C C61U is lower in self-cleavage: 0.923 for the first, 0.872 for the second.

First: C49A U69G
Second: C49U U60C
The self-cleavage of the first is higher: 1.33 for the first, 1.04 for the second.

First: C49U U60G
Second: C49U U60A
The self-cleavage of the first is higher: 0.939 for the first, 0.718 for the second.

Compared with C49A C61U, C49A C61A is lower in self-cleavage: 0.789 for the first, 0.759 for the second.

First: C49U G76C
Second: G50U C84A
The self-cleavage of the first is lower: 0.867 for the first, 0.974 for the second.

Compared with G50U C84G, C49G A83G is lower in self-cleavage: 0.724 for the first, 0.378 for the second.

First: C49G G74U
Second: C49G G74C
The self-cleavage of the first is higher: 0.219 for the first, 0.192 for the second.

Compared with U47A G67C, G50C U60G is lower in self-cleavage: 1.12 for the first, 1.03 for the second.

Compared with G50C U60A, C49G G54C is lower in self-cleavage: 1.03 for the first, 0.762 for the second.

First: C49G G54A
Second: C49U G50U
The self-cleavage of the first is lower: 0.332 for the first, 0.941 for the second.

Compared with C49A A87C, C49A A87G is lower in self-cleavage: 0.95 for the first, 0.839 for the second.

First: C48G A87C
Second: C48G A87G
The self-cleavage of the first is higher: 1.08 for the first, 0.975 for the second.

First: C49G C66U
Second: C48U G52C
The self-cleavage of the first is lower: 0.646 for the first, 0.847 for the second.

Compared with C49G C61G, U47G G73C is lower in self-cleavage: 0.618 for the first, 0.534 for the second.

Compared with U47G G73A, U47G G73U is lower in self-cleavage: 0.852 for the first, 0.458 for the second.

Going from G50C C57U to G50C C57G, the self-cleavage rises from 1.04 to 1.12.

First: C49A A70G
Second: C49G G76A
The self-cleavage of the first is lower: 0.689 for the first, 1.1 for the second.

Compared with C48U A56G, C49U G74A is lower in self-cleavage: 0.989 for the first, 0.443 for the second.

Compared with C49U G74C, U47G C75A is lower in self-cleavage: 0.374 for the first, 0.107 for the second.

U47G C75U gave a self-cleavage of 0.305.
